Data on 4 molecules can be found in paper PMC12494797, “Multi-domain O-GlcNAcase structures reveal allosteric regulatory mechanisms” (Nature Communications, 2025).

Broadly, the stoichiometry N is a count of units in the complex or per binding partner. As usually defined, the Kd is a measure of binding affinity in units of concentration. A lower Kd goes with a tighter complex.

Data set [1] deals with His-tagged Trichoplax adhaerens OGA pHAT domain (TapHAT) (Trichoplax adhaerens). Description: SEC; analytical; Superdex 200 Increase 10/300 GL; 500 μL of His-tagged pHAT at 1 mg/mL; 25 mM Tris pH 7.5, 150 mM NaCl, 0.5 mM TCEP; LMW calibration standards. In general terms: Size exclusion chromatography separates by hydrodynamic size, large species first.
The target of data set [2] is T1, OgHAT (OgAT) (Oceanicola granulosus, UniProt Q2CEE2).
T1 construct: gene OG2516_04134; amine-biotinylated, captured on streptavidin CM5 chip; not known to form dimers
T1 sequence (Q2CEE2 whole entry): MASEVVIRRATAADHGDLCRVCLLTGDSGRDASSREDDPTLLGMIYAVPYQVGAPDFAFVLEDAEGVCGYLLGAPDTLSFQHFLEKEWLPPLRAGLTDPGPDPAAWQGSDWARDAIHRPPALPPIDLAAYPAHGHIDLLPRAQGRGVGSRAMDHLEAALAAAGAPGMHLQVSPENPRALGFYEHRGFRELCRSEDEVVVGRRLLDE
The experiment in a line: SPR (Biacore […]), […] equilibrium-binding fit. A general note: In SPR one partner is held on a chip, and binding of the other changes the refractive index at the surface.

Data set [3] concerns the molecule itself. Description: SEC; analytical; Superdex 200 Increase 10/300 GL; 500 μL of His-tagged pHAT at 1 mg/mL; 25 mM Tris pH 7.5, 150 mM NaCl, 0.5 mM TCEP; LMW calibration standards.
Data set [4] deals with the molecule itself. Description: cryo-EM structure; 0.5 mg/mL hOGA or TaOGA vitrified at 4 °C; Titan Krios 300 kV; CryoSPARC.

In data set [1], “His-tagged Trichoplax adhaerens OGA pHAT domain (TapHAT) (domain or fragment)” had a stoichiometry N of 2.

`CC(=O)SCCNC(=O)CCNC(=O)[C@H](O)C(C)(C)COP(=O)(O)OP(=O)(O)OC[C@H]1O[C@@H](n2cnc3c(N)ncnc32)[C@H](O)[C@@H]1OP(=O)(O)O` [acetyl-CoA]: in data set [2], binding was characterised by a dissociation constant (Kd) of 5 mM.

B1: His-tagged human OGA pHAT domain (hpHAT) (domain or fragment, UniProt O60502 710-916, looked up)
chain: PTSKVYTIRPYFPKDEASVYKICREMYDDGVGLPFQSQPDLIGDKLVGGLLSLSLDYCFVLEDEDGICGYALGTVDVTPFIKKCKISWIPFMQEKYTKPNGDKELSEAEKIMLSFHEEQEVLPETFLANFPSLIKMDIHKKVTDPSVAKSMMACLLSSLKANGSRGAFCEVRPDDKRILEFYSKLGCFEIAKMEGFPKDVVILGRSL
notes: pHAT domain of human O-GlcNAcase (OGA), residues 710-916; non-cleavable 6xHis-tag; also called human pHAT; isolated human pHAT domain; source: E. coli BL21(DE3) pLysS, purified (NiNTA, Superdex 75)
Turning to B1, in data set [3], the “stoichiometry N” value came out at 2.

B2: Trichoplax adhaerens O-GlcNAcase (TaOGA), residues 5-723 (enzyme, UniProt A0A0D5X2Y8 5-723, looked up)
chain: KFLSGVVEGFYGKPWSFEQRKTLFSNMAKWGLNTYMYGPKDDEKHRAAWKQAYSKREGDSLRALIRAAEESGILFIYAISPGVDITYSSNRDMKFLKDKLDQIRNFGCNSFAIFFDDIDTVMCLQDQEEFESFAAAQVEVTNEIYKYLGMPANFLFCPTEYCAARADPNVKESKYLVTVGTGLHSDIHIMWTGPKVVSNKISVESILELQTVLRRKPVIWDNIHANDYEQGRLNLGPYDCRPAELMESLNGIFTNPNCEFELNYVPIRTFSLWCQSKRTRFNYDVEKALEQSIREWTEEFCIPRLPDGYLLEADTSDTNVNEYMDDEMQSDSRPISPANSMETDKDELTVKDIRLLVELFYLPQKHGKTANDLLAQAKWLKSNFRIAALSRKPNDTSEGSNLDEHNTDYIAAKEWDKRFSKFRSICQIIHQFGDRLMTCRNRVLLYEVYNYVADLCGILYHLISRIHSLANPEKLEKRSDSEQSSFRYGGFVGDIHRLIVSTDEYEESTLKNSDAYVIRPFMPSDEETLYDLCLKSCIENSNGDEIYKREPRIIGDRDLGAYIYLHPEYIYVLEDDRDKICGYLCGALDSKQFYERYESEWLTQIRDRHPQPENDIASWTPEEIVANSFYNFTPPTDVSVLYLSHLEARFDSSVPEKVIKRIIRFILEQLKAKGSYGASMLIDSWRTNLRRIFTSMGFVDLQEYSWMSEQKCMIAIKLM
notes: TaOGA (TaOGA54), Trichoplax adhaerens, residues 5-723; the results call it full-length; also called TaOGA54; full-length TaOGA; source: E. coli BL21(DE3) pLysS, purified (Ni-NTA, PreScission cleavage, Superdex 200); not shown: His6, N-terminal, cleaved
In the case of B2, the binding result in data set [4] is on record as “binds”.
